Assay results: patent publication US20170212131A1 (NEW YORK UNIVERSITY, published 2017)

B1: scFv235 (scFv, not shown: small tags and cut ends)
scFv: ELDVVMTQTPLTLSVTIGQPASISCKSSQSLLYSNGKTYLNWLLQRPGQSPKRLIYLVSKLDSGVPDRFTGSGSGTDFTLKISRVEAEDLGVYYCVQGTHSPLTFGAGTKLELKSSGGGGSGGGGGGSSRSSLEVQLQQSGPELVKPGASVKISCKTSEYTFTEYTKHWVKQSHGKSLEWIGSINPNNGDTYYNQKFTDKATLTVDKSSTTASMELRSLTFEDSAVYYCAMGDSAWFAYWGQGTLVTVSA
notes: Made in E. coli from the phage display library of hybridoma 6B2G12; also called the scFv; His-tagged scFv235
B2: antibody 6B2G12 (antibody, V domains shown)
VH: EVQLQQSGPELVKPGASVKISCKTSEYTFTEYTKHWVKQSHGKSLEWIGSINPNNGDTYYNQKFTDKATLTVDKSSTTASMELRSLTFEDSAVYYCAMGDSAWFAYWGQGTLVTVS
VL: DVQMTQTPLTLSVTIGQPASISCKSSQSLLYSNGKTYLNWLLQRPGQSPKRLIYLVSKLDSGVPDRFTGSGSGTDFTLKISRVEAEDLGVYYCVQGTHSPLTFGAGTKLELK
notes: Monoclonal antibody from hybridoma clone 6B2G12, whole antibody (about 150 kDa); also called parent antibody; parental antibody

Assays:
[1] = biological target: T1, Tau-phospho-serine 396/404 peptide; assay: ratio of association/dissociation from SPR
T1 construct: Synthetic 30-residue peptide (Keck Foundation, Yale University) used for panning, ELISA and Biacore

[2] = biological target: T1, Tau-phospho-serine 396/404 peptide; assay: SPR (Biacore 2000), scFv immobilized, peptide as analyte
Description: (§1) Briefly, scFv235/antibody (10 μg/ml) was diluted in 10 mM sodium acetate, pH 5.0, and was immobilized on a separate CMS sensor chip with an amine coupling kit (7 min contact time at 5 μl/min flow rate). Unreacted surface-bound material was blocked with ethanolamine. One channel of each sensor chip, prepared in the same way without scFv235 or antibody, was used to monitor the nonspecific binding of the peptide. All measurements were done with HBS-EP buffer (10 mM HEPES at pH 7.4, 150 mM NaCl, 3.4 mM EDTA and 0.005% surfactant P20) at flow rate of 5 μl/min at 25° C. After each measurement, the chip surface was regenerated with 10 μl of a buffer containing 500 mM NaCl and 0.1M glycine HCl, pH 8.0. […] Table 5 and Table 6 summarize the kinetics and specificity of binding of the 6B2G12 antibody and scFv235.

[3] = biological target: T1, Tau-phospho-serine 396/404 peptide; assay: as above; remark: listed apart in the source
Description: as §1

[4] = biological target: T1, Tau-phospho-serine 396/404 peptide; assay: ratio of SPR KD values
[5] = biological target: T1, Tau-phospho-serine 396/404 peptide; assay: SPR (Biacore 2000), antibody immobilized, peptide as analyte
Description: as §1

[6] = biological target: T1, Tau-phospho-serine 396/404 peptide; assay: as above; remark: listed apart in the source
Description: as §1

Binder | fold lower affinity than antibody 6B2G12 [1] | Kd [2] | Kd [3] | koff [3] | kon [3] | selectivity for the phosphorylated peptide (SEQ ID NO:28) relative to the non-phosphorylated peptide (SEQ ID NO:27) [4] | Kd [5] | koff [5] | kon [5] | Kd [6]
B1 | ~2510 fold | 1040 nM | 994 nM | 0.0039 s⁻¹ | 3930 M⁻¹ s⁻¹ | 3900 fold | – | – | – | –
B2 | – | – | – | – | – | – | 0.395 nM | 0.00146 s⁻¹ | 3.69e+06 M⁻¹ s⁻¹ | 0.395 nM
